{"source": "paper PMC6298778", "about": "“A secretory pathway kinase regulates sarcoplasmic reticulum Ca^2+ homeostasis and protects against heart failure” (eLife, 2018)", "molecules": {"B1": {"name": "calsequestrin 2 (CSQ2), phosphorylated in vitro by Fam20C, His-tagged (natural protein, human, UniProt O14958 19-399, looked up)", "chain": "AEEGLNFPTYDGKDRVVSLSEKNFKQVLKKYDLLCLYYHEPVSSDKVTQKQFQLKEIVLELVAQVLEHKAIGFVMVDAKKEAKLAKKLGFDEEGSLYILKGDRTIEFDGEFAADVLVEFLLDLIEDPVEIISSKLEVQAFERIEDYIKLIGFFKSEDSEYYKAFEEAAEHFQPYIKFFATFDKGVAKKLSLKMNEVDFYEPFMDEPIAIPNKPYTEEELVEFVKEHQRPTLRRLRPEEMFETWEDDLNGIHIVAFAEKSDPDGYEFLEILKQVARDNTDNPDLSILWIDPDDFPLLVAYWEKTFKIDLFRPQIGVVNVTDADSVWMEIPDDDDLPTAEELEDWIEDVLSGKINTEDDDEDDDDDDNSDEEDNDDSDDDDDE", "modifications": "phosphoserine at 385 (phosphorylated in vitro by Fam20C; saturated phosphorylation >95%)", "notes": "also called phosphorylated CSQ2; phosphorylated His-CASQ2; source: E. coli BL21 (DE3)-RILP, purified (Ni-NTA), phosphorylated in vitro by Fam20C, then size exclusion chromatography; not shown: His6, C-terminal, kept"}, "B2": {"name": "calsequestrin 2 (CSQ2), unphosphorylated, His-tagged (natural protein, human, UniProt O14958 19-399, looked up)", "chain": "B1 chain", "notes": "Control sample of the turbidity assay: same treatment as the phosphorylated protein but without Fam20C; also called CASQ2; His-CASQ2; source: E. coli BL21 (DE3)-RILP, purified (Ni-NTA, size exclusion chromatography); treated in tandem without Fam20C; not shown: His6, C-terminal, kept"}}, "key": {"[1]": {"biological_target": "calsequestrin 2 (CSQ2, CASQ2) 19-399 (UniProt O14958)", "experiment": "Ca2+-dependent turbidity, absorbance at 350 nm", "settings": "reference: CSQ2 treated in tandem without Fam20C; sites S385"}, "[2]": {"biological_target": "the molecule itself", "experiment": "turbidity assay; 4.5 uM phosphorylated or unphosphorylated His-CASQ2, 10 mM Tris-HCl pH 7.0, 10% glycerol, CaCl2 at the concentrations indicated; 30 min at room temperature; absorbance at 350 nm"}}}
{"molecule": "calsequestrin 2 (CSQ2, CASQ2) 19-399 (from UniProt O14958) CSQ2 phosphorylated in vitro by Fam20C", "values": [{"measurement": "binding against the reference", "setting": "[1]", "result": "stronger"}]}
{"molecule": "B1", "values": [{"measurement": "binding result", "setting": "[2]", "result": "binds"}]}
{"molecule": "B2", "values": [{"measurement": "binding result", "setting": "[2]", "result": "binds"}]}
